Series [1] deals with T1, Aβ40DI (Homo sapiens, UniProt P05067, D694N/E693Q). The series is described as follows: Affinity chromatography of human brain homogenate on Aβ40DI column. The class given is binding. As to the method: For some embodiments of the invention, it may be advantageous to work with purified isolates of mutant and wild-type forms of Aβ. The affinity chromatography method used in the development of embodiments of the instant invention to obtain such isolates is exemplary: To prepare affinity resins, biotinylated wild-type Aβ40 peptide (Aβ40WT) and Aβ40DI were each redissolved in 20 mM NaHCO3 buffer (pH 8.5) and applied to ImmunoPure immobilized streptavidin beads (Pierce) following the manufacturer's instructions. Immobilized ligands were cross-linked with 2 mM bis(sulfosuccinimidyl) suberate (Pierce) for 30 min with rocking at room temperature in 20 mM NaHCO3 (pH 8.5). Crosslinking reactions were stopped by the addition of 1 M Tris-HCl (pH 7.4) to a final concentration of 20 mM. Homogenates of normal human brain frontal cortex (which may obtained as biopsies) were prepared in Tris-buffered saline (50 mM Tris-HCl and 200 mM NaCl (pH 7.4)) containing complete protease inhibitor cocktail (Roche). Homogenates were centrifuged at 12,000×g for 30 min, and supernatants were loaded onto Tris-buffered saline-equilibrated affinity columns (0.8×4 cm) under gravity flow. […] Fractions were analyzed by SDS-PAGE on 10-20% Tris/glycine gradient gels. […]

The next series has as its target wild-type Aβ42 (Homo sapiens, UniProt P05067). Kind of series: Thioflavin T fluorescence assay of Aβ42 fibril formation. The class given is biochemical. The conditions noted are these: 12.5 μM Aβ42, 1.56 μM MBP. The method, then: FIG. 19 Thioflavin T analysis for inhibition of Aβ42 fibril formation by MBP. Aβ42 at a concentration of 12.5 μM in PBS in the absence (diamond) or presence of 1.56 μM MBP (triangle) or 1.56 μM […]-lactalbumin (square) as control. The data shown are the mean S.D. of triplicate samples.
The Aβ B binding properties of the exemplary fragments of MBP described herein were determined in a thioflavin T fluorescence assay as follows: Lyophilized Aβ peptides were first resuspended with Me2SO to 2.5 mM, diluted to 12.5 μM in PBS, and then incubated at 37° C. with rocking either alone or with 1.56 μM MBP or bovine α-lactalbumin. Control samples containing 0.5% Me2SO and 1.56 μM MBP or lactalbumin in PBS were also included. At each time point, 100 μl samples of each reaction were placed in a 96-well microplate in triplicate, and 5 μl of 100 µM thioflavin T was added. The plate was mixed and incubated at 22° C. in the dark for 10 min. Fluorescence was measured at 490 nm with an excitation wavelength of 446 nm in a SpectraMax spectrofluorometer (Molecular Devices, Sunnyvale, Calif.) using SoftMax Pro control software. It is apparent that the method enables persons of skill in the art to determine the binding properties of MBP, variants thereof, and fragments thereof for any Aβ-peptide, including mutants thereof.

Series [2] has as its target T1, Aβ40DI. The series is described as follows: Quantitative immunoblot analysis of Aβ40DI fibril assembly. It counts as biochemical. As to conditions: 12.5 μM Aβ40DI, 1.56 μM MBP, up to 12 h. As to the method:
Aβ40DI (12.5 μM) was incubated in the absence (A and D) or presence (C and F) of 1.56 […] purified MBP. Bovine a-lactalbumin (Lalb. 1.56 μM) was included as a negative control (B and E). Aliquots were removed at specific time points and analyzed by quantitative immunoblot analysis using anti-Aβ mAb 6E10. […] Data represent the means±S.D. of three separate experiments.
Briefly, samples were heated at 90° C. for 5 min in reducing SDS-PAGE loading buffer, loaded onto gels, and electrophoresed. Gels were transferred to Hybond ECL nitrocellulose membranes (Amersham Biosciences) at 50 V overnight at 4° C. Membranes were blocked in PBS containing 5% milk or bovine serum albumin (BSA; used with biotinylated primary antibodies) at room temperature for 1 h and washed 3×10 min with PBS and 0.05% Tween 20. Membranes were incubated with primary antibodies for 1 h and washed as described above. Next, the membranes were incubated with either horseradish peroxidase-conjugated sheep anti-mouse IgG or horseradish peroxidase-conjugated streptavidin (both from Amersham Biosciences) for 1 h and washed. Detection was accomplished using ECL Western blotting substrate (Pierce), and images were captured either on film or using a VersaDoc 3000 imaging system (Bio-Rad) and quantitated with the manufacturer's Quantity One software.
(In general: Immunoblotting shows a protein as a band on a membrane.)

Another series concerns the target Aβ40WT (Homo sapiens, UniProt P05067). Kind of series: Co-immunoprecipitation of MBP with Aβ40WT. It counts as binding. As to conditions: purified MBP. As to the method:
AP peptides were resuspended in Me2SO to 2.5 mM and used at 10.8 μM. MBP was used at 1.56 μM. Proteins were combined in 250 μl of incubation buffer (PBS, 0.05% Tween 20, and 1% BSA). Anti-MBP mAb 382 was added to each sample mixture and incubated for 1 h at 4° C. with rocking. After incubation, 20 μl of washed GammaBind protein G-Sepharose beads (Amersham Biosciences) were added to each mixture, followed by incubation for an additional 1 h at 4° C. with rocking. Beads were separated by centrifugation at 8000×g for 2 min. Supernatants were removed, and beads were washed with 1 ml of incubation buffer. Separation and washing were repeated three times. A final wash was performed in PBS and 0.05% Tween 20 to remove excess BSA. Centrifuged beads were combined with 25 μl of reducing SDS-PAGE loading buffer and heated as described above. 10 μl of each sample/loading buffer mixture was loaded onto 10-20% Tricine gels (Invitrogen) and electrophoresed at 125 V for 35 min. Immunoblotting was carried out as described above using either biotinylated anti-MBP mAb 384 or biotinylated anti-Aβ mAb 3D6 as primary antibody. Experiments were performed in triplicate.

“Also recorded” adds a separate entry of the source.

B1: myelin basic protein (protein)
chain: ASQKRPSQRHGSKYLATASTMDHARHGFLPRHRDTGILDSIGRFFGGDRGAPKRGSGKDSHHPARTAHYGSLPQKSHGRTQDENPVVHFFKNIVTPRTPPPSQGKGRGLSLSRFSWGAEGQRPGFGYGGRASDYKSAHKGFKGVDAQGTLSKIFKLGGRDSRSGSPMARR
notes: myelin basic protein, major form about 18.5 Kd (170 residues); purified protein
On to B1, for which, in the series with Aβ40DI [1], the “capture on Aβ40DI affinity column” value is “captured; also recorded: preferentially binds”. For the same molecule, the “inhibition of wild-type Aβ42 fibrillogenesis (thioflavin T)” value in the series with wild-type Aβ42 was “prevents fibrillization; also recorded: inhibited”. The “accumulation of high molecular mass species of Aβ40DI” value with Aβ40DI [2] is recorded as “allows no high molecular mass species of Aβ40DI to accumulate”. Besides, the binding by immunoprecipitation entry in the series with Aβ40WT is recorded as “bound”.

The values are drawn from US9217013B2, “Treatment of amyloidoses using myelin basic protein and fragments thereof” (The Research Foundation for the State University of New York, priority 2008, dated 2015).
